Experimental data: the supplement of paper PMC10567573

B1: SNX3 (parent)
chain: FLRQLPFRGDDGIFDDNFIEERKQ
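Note: lentivirally expressed fusions sorted by FACS into six bins by GFP to DsRed ratio, PSI derived from sequencing read proportions per bin multiplied by bin number.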

Variants of: B1
Experiment: protein stability index of a GFP-peptide fusion (GPS, HEK-293T) (PSI 1-6); higher = more stable
Conditions: c terminus: a fixed tail appended
FLRQLPFRGDTGIFDDNFIEERKQ [D11T] gave a protein stability index of 3.37.
FLRQLPFRGDGGIFDDNFIEERKQ [D11G] showed a protein stability index of 4.22.
With FLRQLPFRGDKGIFDDNFIEERKQ [D11K] the protein stability index was 3.
For FLRQLPFRGDDGIFDDNFIAERKQ [E20A], the protein stability index was 3.57.
FLRQLPFRGDDGIFDQNFIEERKQ [D16Q] gave a protein stability index of 3.
FLRQLPFRGDDGIFDYNFIEERKQ [D16Y] showed a protein stability index of 2.8.
FLRQLPFRGDDGIFDRNFIEERKQ [D16R] showed a protein stability index of 3.23.
In the case of FLRQLPFRGDDGIFDMNFIEERKQ [D16M], the protein stability index is reported as 2.95.
FLRQLPFRGDDGIFDWNFIEERKQ [D16W] gave a protein stability index of 2.73.
In the case of FLRQLPFRGDDGIFDINFIEERKQ [D16I], the protein stability index is reported as 3.19.
Variant FLRQLPFRGDDGIFDHNFIEERKQ [D16H] has a protein stability index of 3.6.
FLRQLPFRGDDGIFDVNFIEERKQ [D16V] showed a protein stability index of 3.45.
Work on FLRQLPFRGDDGIFDPNFIEERKQ [D16P] yielded a protein stability index of 3.4.
In the case of FLRQLPFRGDDGIFDNNFIEERKQ [D16N], the protein stability index is reported as 2.88.
For FLRQLPFRGDDGIFDTNFIEERKQ [D16T], the protein stability index was 3.06.
FLRQLPFRGDDGIFDLNFIEERKQ [D16L] gave a protein stability index of 2.91.
For FLRQLPFRGDDGIFDSNFIEERKQ [D16S], the protein stability index was 3.53.
In the case of FLRQLPFRGDDGIFDCNFIEERKQ [D16C], the protein stability index is reported as 3.05.
Variant FLRQLPFRGDDGIFDKNFIEERKQ [D16K] has a protein stability index of 3.86.
FLRQLPFRGDDGIFDGNFIEERKQ [D16G] gave a protein stability index of 3.18.
With FLRQLPFRGDDGIFDANFIEERKQ [D16A] the protein stability index was 2.62.
With FLRQLPFRGDDGIFDFNFIEERKQ [D16F] the protein stability index was 2.56.
In the case of FLRQLPFRGDDNIFDDNFIEERKQ [G12N], the protein stability index is reported as 3.23.
FLRQLPFRGDDMIFDDNFIEERKQ [G12M] showed a protein stability index of 3.79.
With FLRQLPFRGDDAIFDDNFIEERKQ [G12A] the protein stability index was 3.79.
FLRQLPFRGDDQIFDDNFIEERKQ [G12Q] showed a protein stability index of 3.84.
Work on FLRQLPFRGDDFIFDDNFIEERKQ [G12F] yielded a protein stability index of 3.03.
With FLRQLPFRGDDPIFDDNFIEERKQ [G12P] the protein stability index was 2.74.
FLRQLPFRGDDWIFDDNFIEERKQ [G12W] gave a protein stability index of 2.67.
Work on FLRQLPFRGDDEIFDDNFIEERKQ [G12E] yielded a protein stability index of 3.64.
With FLRQLPFRGDDTIFDDNFIEERKQ [G12T] the protein stability index was 3.66.
For FLRQLPFRGDDLIFDDNFIEERKQ [G12L], the protein stability index was 3.01.
FLRQLPFRGDDVIFDDNFIEERKQ [G12V] gave a protein stability index of 3.07.
Variant FLRQLPFRGDDCIFDDNFIEERKQ [G12C] has a protein stability index of 3.03.
In the case of FLRQLPFRGDDSIFDDNFIEERKQ [G12S], the protein stability index is reported as 3.21.
With FLRQLPFRGDDIIFDDNFIEERKQ [G12I] the protein stability index was 2.39.
In the case of FLRQLPFRGDDHIFDDNFIEERKQ [G12H], the protein stability index is reported as 3.77.
Work on FLRQLPFRGDDRIFDDNFIEERKQ [G12R] yielded a protein stability index of 3.1.
In the case of FLRQLPFRGDDYIFDDNFIEERKQ [G12Y], the protein stability index is reported as 2.91.
Work on FLRQLPFRGDDKIFDDNFIEERKQ [G12K] yielded a protein stability index of 4.03.
With FLRQLPFRGDDDIFDDNFIEERKQ [G12D] the protein stability index was 3.67.
With FLRQLPFRGDDGIHDDNFIEERKQ [F14H] the protein stability index was 4.32.
For FLRQLPFRGDDGIKDDNFIEERKQ [F14K], the protein stability index was 4.23.
In the case of FLRQLPFRGDDGIWDDNFIEERKQ [F14W], the protein stability index is reported as 3.38.
Variant FLRQLPFRGDDGIMDDNFIEERKQ [F14M] has a protein stability index of 3.67.
Variant FLRQLPFRGDDGILDDNFIEERKQ [F14L] has a protein stability index of 3.56.
Variant FLRQLPFRGDDGIGDDNFIEERKQ [F14G] has a protein stability index of 4.33.
Work on FLRQLPFRGDDGIYDDNFIEERKQ [F14Y] yielded a protein stability index of 2.84.
FLRQLPFRGDDGIRDDNFIEERKQ [F14R] gave a protein stability index of 3.88.
Variant FLRQLPFRGDDGICDDNFIEERKQ [F14C] has a protein stability index of 3.06.
FLRQLPFRGDDGITDDNFIEERKQ [F14T] showed a protein stability index of 3.86.
In the case of FLRQLPFRGDDGIQDDNFIEERKQ [F14Q], the protein stability index is reported as 3.67.
In the case of FLRQLPFRGDDGIADDNFIEERKQ [F14A], the protein stability index is reported as 4.26.
FLRQLPFRGDDGISDDNFIEERKQ [F14S] gave a protein stability index of 3.87.
Work on FLRQLPFRGDDGIDDDNFIEERKQ [F14D] yielded a protein stability index of 4.79.
Work on FLRQLPFRGDDGIEDDNFIEERKQ [F14E] yielded a protein stability index of 4.56.
FLRQLPFRGDDGIVDDNFIEERKQ [F14V] gave a protein stability index of 3.81.
FLRQLPFRGDDGIIDDNFIEERKQ [F14I] showed a protein stability index of 3.76.
Work on FLRQLPFRGKDGIFDDNFIEERKQ [D10K] yielded a protein stability index of 3.41.
In the case of FLRQLPFRGPDGIFDDNFIEERKQ [D10P], the protein stability index is reported as 3.42.
For FLRQLPFRGWDGIFDDNFIEERKQ [D10W], the protein stability index was 2.35.
For FLRQLPFRGEDGIFDDNFIEERKQ [D10E], the protein stability index was 3.33.
FLRQLPFRGVDGIFDDNFIEERKQ [D10V] showed a protein stability index of 3.72.
Work on FLRQLPFRGHDGIFDDNFIEERKQ [D10H] yielded a protein stability index of 3.65.
FLRQLPFRGNDGIFDDNFIEERKQ [D10N] showed a protein stability index of 2.64.
Variant FLRQLPFRGADGIFDDNFIEERKQ [D10A] has a protein stability index of 3.12.
FLRQLPFRGFDGIFDDNFIEERKQ [D10F] gave a protein stability index of 2.62.
FLRQLPFRGGDGIFDDNFIEERKQ [D10G] showed a protein stability index of 2.76.
In the case of FLRQLPFRGRDGIFDDNFIEERKQ [D10R], the protein stability index is reported as 3.27.
Variant FLRQLPFRGMDGIFDDNFIEERKQ [D10M] has a protein stability index of 3.41.
Work on FLRQLPFRGCDGIFDDNFIEERKQ [D10C] yielded a protein stability index of 3.52.
Work on FLRQLPFRGSDGIFDDNFIEERKQ [D10S] yielded a protein stability index of 3.35.
Work on FLRQLPFRGQDGIFDDNFIEERKQ [D10Q] yielded a protein stability index of 3.56.
FLRQLPFRGLDGIFDDNFIEERKQ [D10L] showed a protein stability index of 2.42.
FLRQLPFRGIDGIFDDNFIEERKQ [D10I] gave a protein stability index of 2.03.
In the case of FLRQLPFRGYDGIFDDNFIEERKQ [D10Y], the protein stability index is reported as 1.9.
FLRQLPFRGTDGIFDDNFIEERKQ [D10T] gave a protein stability index of 3.2.
In the case of FLRQLPFRGDDGIFDDNFFEERKQ [I19F], the protein stability index is reported as 3.79.
FLRQLPFRGDDGIFDDNFQEERKQ [I19Q] gave a protein stability index of 4.12.
FLRQLPFRGDDGIFDDNFWEERKQ [I19W] showed a protein stability index of 3.6.
Variant FLRQLPFRGDDGIFDDNFCEERKQ [I19C] has a protein stability index of 3.29.
For FLRQLPFRGDDGIFDDNFLEERKQ [I19L], the protein stability index was 3.
With FLRQLPFRGDDGIFDDNFDEERKQ [I19D] the protein stability index was 3.98.
Variant FLRQLPFRGDDGIFDDNFHEERKQ [I19H] has a protein stability index of 2.92.
With FLRQLPFRGDDGIFDDNFTEERKQ [I19T] the protein stability index was 3.86.
Work on FLRQLPFRGDDGIFDDNFVEERKQ [I19V] yielded a protein stability index of 3.73.
FLRQLPFRGDDGIFDDNFMEERKQ [I19M] gave a protein stability index of 3.75.
FLRQLPFRGDDGIFDDNFSEERKQ [I19S] showed a protein stability index of 3.67.
FLRQLPFRGDDGIFDDNFKEERKQ [I19K] showed a protein stability index of 3.62.
With FLRQLPFRGDDGIFDDNFAEERKQ [I19A] the protein stability index was 4.03.
Work on FLRQLPFRGDDGIFDDNFGEERKQ [I19G] yielded a protein stability index of 3.87.
FLRQLPFRGDDGIFDDNFYEERKQ [I19Y] gave a protein stability index of 3.15.
FLRQLPFRGDDGIFDDNFNEERKQ [I19N] showed a protein stability index of 3.94.
With FLRQLPFRGDDGIFDDNFPEERKQ [I19P] the protein stability index was 4.04.
